The results in this text go back to US20200002405A1 (ADMINISTRATORS OF THE TULANE EDUCATIONAL FUND, published 2020).

The target in assay [1] is T1, LASV Josiah (lineage IV) glycoprotein, full-length GP (Lassa virus, Josiah strain, UniProt P08669 2-491).
T1 sequence: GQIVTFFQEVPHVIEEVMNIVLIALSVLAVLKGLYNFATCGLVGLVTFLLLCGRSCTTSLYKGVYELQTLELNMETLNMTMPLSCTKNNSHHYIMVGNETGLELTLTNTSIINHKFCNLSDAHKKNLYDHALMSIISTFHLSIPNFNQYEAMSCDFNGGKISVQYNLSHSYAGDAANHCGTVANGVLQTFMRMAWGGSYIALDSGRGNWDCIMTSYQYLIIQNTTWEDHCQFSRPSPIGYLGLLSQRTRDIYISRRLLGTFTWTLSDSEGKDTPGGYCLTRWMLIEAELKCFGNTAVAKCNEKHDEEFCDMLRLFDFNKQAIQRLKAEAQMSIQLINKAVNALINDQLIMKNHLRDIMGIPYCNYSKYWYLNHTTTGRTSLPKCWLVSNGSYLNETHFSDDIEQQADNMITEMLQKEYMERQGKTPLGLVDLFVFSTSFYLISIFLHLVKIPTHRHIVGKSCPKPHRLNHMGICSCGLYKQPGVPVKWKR
The experiment in a line: cell-based or functional assay.

For assay [2], the target named is LASV 237 (lineage III) glycoprotein (Lassa virus, strain 237). The experiment in a line: cell-based or functional assay.
Assay [3] concerns the target LASV A19 (lineage II) glycoprotein (Lassa virus, strain A19). The experiment in a line: cell-based or functional assay.
For assay [4], the target named is LASV Pinneo (lineage I) glycoprotein (Lassa virus, strain Pinneo). The experiment in a line: cell-based or functional assay.
The target of assay [5] is T1, LASV Josiah (lineage IV) glycoprotein, …. The experiment in a line: cell-based or functional assay. This is another data set of the same source.
For another assay, the target named is T2, LCMV WE strain GP (LCMV, WE strain, UniProt P07399 2-498).
T2 construct: whole, on cells
T2 sequence: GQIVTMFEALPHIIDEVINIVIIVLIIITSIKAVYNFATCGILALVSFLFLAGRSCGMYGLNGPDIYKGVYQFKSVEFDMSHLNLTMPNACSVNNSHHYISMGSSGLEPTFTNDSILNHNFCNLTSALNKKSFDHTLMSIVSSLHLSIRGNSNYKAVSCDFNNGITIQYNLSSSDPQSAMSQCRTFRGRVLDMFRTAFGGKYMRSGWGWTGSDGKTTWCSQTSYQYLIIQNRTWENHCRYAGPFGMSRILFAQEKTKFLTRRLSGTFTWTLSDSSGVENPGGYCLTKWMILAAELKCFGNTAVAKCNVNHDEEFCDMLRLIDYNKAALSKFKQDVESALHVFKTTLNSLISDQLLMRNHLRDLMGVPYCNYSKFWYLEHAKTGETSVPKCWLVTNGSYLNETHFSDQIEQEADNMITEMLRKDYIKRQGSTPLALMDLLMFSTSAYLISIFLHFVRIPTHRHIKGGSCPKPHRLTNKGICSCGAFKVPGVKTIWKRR
The experiment in a line: cross-reactivity, immunofluorescence on GP-transfected 293T cells.

Where two headings read alike, the source gives them in different places.

B1: 37.2G (antibody, V domains shown)
VH: EVQLVESGGGLVKPGGSRRLSCAASGFTFSRDTMTWVRQAPGKGLEWVASISSGSSDINYADSVKGRFTISRDNGKNSLYLHMNSLRADDTAIYYCARDPRSGISGRYGMDVWGQGTTVTVSS
VL: DIVLTQSPGTLSLSPGERATLSCRASQSVNSIFLAWYQQKPGQAPRLLIYGASSRATGIPDRFSGSGSGTDFTLTISRLEPEDFAVYYCQQYHSSPKLTFGGGTKVEIKR
B1: the “IC50 (neutralization)” value is 5.6 µg/mL in assay [1]; 2.02 µg/mL in assay [2]; 1.1 µg/mL in assay [3]; more than 20 µg/mL in assay [4]; 0.405 µg/mL in assay [5]. The “IC80 (neutralization)” value in assay [1] is 16 µg/mL; in assay [2], 5.23 µg/mL; in assay [3], 10 µg/mL; in assay [4] it was more than 20 µg/mL; in assay [5], 1.78 µg/mL. In the assay with LCMV WE strain GP, the binding result is recorded as “binds”.

B2: 37.7H (antibody, V domains shown)
VH: EVQLVQSGGGLVKAGGSLRLSCAASGFTFSTYSMNWIRQAPGKGLEWVASISSRSGSHINYVDSVKGRFTISRDNARDLLYLQMNSLRVDDSALYYCARDRRSGTSPLPLDVWGQGTTVTVFS
VL: DQSALTQPASVSGSPGQSITISCTGTGSDIGGYNFVSWYQQYPGKAPKLIIYEVRIRASGVSNRFSGSKSGNTASLTISGLQAEDEADYYCNSYSIHSPWVFGGGTKLTVLR
Take B2: the “IC50 (neutralization)” value in assay [1] was determined as 0.191 µg/mL; in assay [2] it was 0.077 µg/mL; in assay [3] it was 0.255 µg/mL; in assay [4] it was 0.301 µg/mL; in assay [5] it was 0.134 µg/mL. The “IC80 (neutralization)” value in assay [1] came to 0.532 µg/mL; in assay [2] it was 0.202 µg/mL; in assay [3], 0.537 µg/mL; in assay [4] it was 1.66 µg/mL; in assay [5], 0.214 µg/mL. Further, the binding result in the assay with LCMV WE strain GP is recorded as “binds”.

B3: 37.2D (antibody, V domains shown)
VH: EVQLVQSGAEVKKPGASVKVSCKASGYTFTKYGISWVRQAPGQGLEWMGWISAFNGYTRYGQRFQGKVTMTTDTSTNTASLEVRTLTSNDTAVYYCARQYPDQYSSSGWPRLFAMDVWGQGTTVIVSP
VL: ETTLTQSPATLSVSPGETATLSCRASQNVINNLAWYQQKPGQAPRLLIYGASTRATGIPARFSGSGSGTEFTLTISSMQSEDFAVYYCQQYNDWPRSFGQGTRLDIRR
Consider B3, for which the “IC50 (neutralization)” value in assay [1] was 0.559 µg/mL; in assay [2], 0.256 µg/mL; in assay [3] it was 0.469 µg/mL; in assay [4] it was 0.537 µg/mL; in assay [5] it was 0.137 µg/mL. The “IC80 (neutralization)” value turned out to be 1.98 µg/mL in assay [1]; 0.844 µg/mL in assay [2]; 1.15 µg/mL in assay [3]; 1.86 µg/mL in assay [4]; 0.26 µg/mL in assay [5]. Moreover, the binding result with LCMV WE strain GP is listed as “binds”.
